{
  "source": "paper PMC9241813",
  "about": "“SGK1, a Serine/Threonine Kinase, Inhibits Prototype Foamy Virus Replication” (Microbiology Spectrum, 2022)",
  "proteins": {"B1": {"name": "prototype foamy virus Tas protein (Flag-Tas) (natural protein)", "chain": "MDSYEKEESVASTSGIQDLQTLSELVGPENAGEGELTIAEEPEENPRRPRRYTKREVKCVSYHAYKEIEDKHPQHIKLQDWIPTPEEMSKSLCKRLILCGLYSAEKASEILRMPFTVSWEQSDTDPDCFIVSYTCIFCDAVIHDPMPIRWDPEVGIWVKYKPLRGIVGSAVFIMHKHQRNCSLVKPSTSCSEGPKPRPRHDPVLRCDMFEKHHKPRQKRPRRRSIDNESCASSSDTMANEPGSLCTNPLWNPGPLLSGLLEESSNLPNLEVHMSGGPFWEEVYGDSILGPPSGSGEHSVL", "notes": "also called PFV Tas; Myc-Tas; source: HEK293T, transfected, in lysate"}},
  "target": "the molecule itself",
  "assay": "cross-linking; HEK293T cells transfected with Flag-Tas and empty vector or HA-SGK1; lysate supernatant incubated with cross-linking buffer at room temperature for 30 min; Western blot",
  "data": [
    {"protein": "B1", "values": [
      {"measurement": "stoichiometry N", "value": 2}
    ]}
  ]
}
